# Assay results taken from patent US20130123349A1 (US Dept. of Health and Human Services, published 2013).
# T1: soluble collagen type III (pepsin-digested, non-fibrillar; BD Biosciences) (human, UniProt P02461 168-1196)
# T1 construct: also called collagen III; soluble collagen III
# T1 sequence: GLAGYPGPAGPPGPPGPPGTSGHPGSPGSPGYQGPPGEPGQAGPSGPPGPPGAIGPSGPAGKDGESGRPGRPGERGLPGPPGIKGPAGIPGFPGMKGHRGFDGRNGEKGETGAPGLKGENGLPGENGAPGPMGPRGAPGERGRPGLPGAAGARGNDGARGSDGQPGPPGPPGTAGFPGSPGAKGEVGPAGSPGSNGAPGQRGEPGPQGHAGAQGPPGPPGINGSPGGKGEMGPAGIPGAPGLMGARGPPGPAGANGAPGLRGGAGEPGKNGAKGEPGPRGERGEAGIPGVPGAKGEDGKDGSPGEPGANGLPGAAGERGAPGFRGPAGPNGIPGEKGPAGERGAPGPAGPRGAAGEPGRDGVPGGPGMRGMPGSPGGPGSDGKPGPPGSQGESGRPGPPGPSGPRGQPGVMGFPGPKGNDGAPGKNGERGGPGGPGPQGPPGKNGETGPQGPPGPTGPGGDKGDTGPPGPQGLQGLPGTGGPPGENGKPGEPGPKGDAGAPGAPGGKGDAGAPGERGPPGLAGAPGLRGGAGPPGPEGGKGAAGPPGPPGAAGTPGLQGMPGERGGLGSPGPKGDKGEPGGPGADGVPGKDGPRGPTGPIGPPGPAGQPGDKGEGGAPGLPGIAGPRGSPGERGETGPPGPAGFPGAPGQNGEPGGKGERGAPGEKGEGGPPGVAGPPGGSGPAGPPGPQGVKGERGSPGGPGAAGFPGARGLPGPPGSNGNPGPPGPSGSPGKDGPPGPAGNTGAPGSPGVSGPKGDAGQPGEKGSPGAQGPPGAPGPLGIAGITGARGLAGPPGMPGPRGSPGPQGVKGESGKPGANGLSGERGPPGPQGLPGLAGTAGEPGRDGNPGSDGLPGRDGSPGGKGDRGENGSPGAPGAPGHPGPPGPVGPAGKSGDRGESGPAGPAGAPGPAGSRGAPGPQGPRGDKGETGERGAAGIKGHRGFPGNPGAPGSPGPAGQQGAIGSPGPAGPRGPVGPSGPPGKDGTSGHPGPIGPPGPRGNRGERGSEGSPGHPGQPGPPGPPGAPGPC
# B1: recombinant Aegyptin (other)
# chain: RPMPEDEEPVAEGGDDDASGESEGEEETTDDAGGDGGEEENEGEEHAGDKDAGGEDTGKEENTGHDDAGEEDAGEEDAGEEDAGEEDAGEEDAEKEEGEKEDAGDDAGSDDGEEDSTGGDEGEDNAEDSKGSEKNDPADTYRQVVALLDKDTKVDHIQSEYLRSALNNDLQSEVRVPVVEAIGRIGDYSKIQGCFKSMGKDVKKVISEEEKKFKSCMSKKKSEYQCSEDSFAAAKSKLSPITSKIKSCVSSKGRHHHHHH
# B2: C-terminus 1 of Aegyptin (113 aa) (other)
# chain: RQVVALLDKDTKVDHIQSEYLRSALNNDLQSEVRVPVVEAIGRIGDYSKIQGCFKSMGKDVKKVISEEEKKFKSCMSKKKSEYQCSEDSFAAAKSKLSPITSKIKSCVSSKGR
# B3: C-terminus-2 of Aegyptin (137 aa) (other)
# chain: GGDEGEDNAEDSKGSEKNDPADTYRQVVALLDKDTKVDHIQSEYLRSALNNDLQSEVRVPVVEAIGRIGDYSKIQGCFKSMGKDVKKVISEEEKKFKSLMSKKKSEYQCSEDSFAAAKSKLSPITSKIKSCVSSKGR
# notes: also called C-terminal-2; C-terminus 2 domain
# How the values were obtained:
# [1] = molecular target: T2, heat-denatured soluble collagen type I (90 min at 98 °C) (human, UniProt P02452 179-1192; P08123 91-1104); experiment: SPR, Aegyptin over immobilized heat-denatured collagen type I, two-state model; Ka1
# T2 construct: also called Collagen denatured; heat-denatured collagen
# [2] = molecular target: T1, soluble collagen type III …; experiment: ELISA, inhibition of vWf (3 nM) binding to coated soluble collagen type III; competitor vWf
# [3] = molecular target: T3, soluble collagen type I (pepsin-digested, non-fibrillar, triple helical; BD Biosciences) (human, UniProt P02452 179-1192; P08123 91-1104); experiment: SPR at 15-40 °C, van't Hoff analysis, Aegyptin over immobilized collagen type I; value (±SE)
# T3 construct: also called collagen I; monomeric type I collagen
# [4] = molecular target: T3, soluble collagen type I …; experiment: SPR, Aegyptin over immobilized soluble collagen type I, 180 s at 30 µl/min, two-state model; Ka1
# [5] = molecular target: T3, soluble collagen type I …; experiment: SPR, […]; concentration not given
# [6] = molecular target: T3, soluble collagen type I …; experiment: SPR, global two-state binding model, immobilized soluble collagen type I
# [7] = molecular target: T3, soluble collagen type I …; experiment: SPR, C-terminus-2 (5 to 250 nM) over immobilized soluble collagen type I, two-state model
# T3 sequence (P02452 179-1192 limits assumed, chain 1 of 2): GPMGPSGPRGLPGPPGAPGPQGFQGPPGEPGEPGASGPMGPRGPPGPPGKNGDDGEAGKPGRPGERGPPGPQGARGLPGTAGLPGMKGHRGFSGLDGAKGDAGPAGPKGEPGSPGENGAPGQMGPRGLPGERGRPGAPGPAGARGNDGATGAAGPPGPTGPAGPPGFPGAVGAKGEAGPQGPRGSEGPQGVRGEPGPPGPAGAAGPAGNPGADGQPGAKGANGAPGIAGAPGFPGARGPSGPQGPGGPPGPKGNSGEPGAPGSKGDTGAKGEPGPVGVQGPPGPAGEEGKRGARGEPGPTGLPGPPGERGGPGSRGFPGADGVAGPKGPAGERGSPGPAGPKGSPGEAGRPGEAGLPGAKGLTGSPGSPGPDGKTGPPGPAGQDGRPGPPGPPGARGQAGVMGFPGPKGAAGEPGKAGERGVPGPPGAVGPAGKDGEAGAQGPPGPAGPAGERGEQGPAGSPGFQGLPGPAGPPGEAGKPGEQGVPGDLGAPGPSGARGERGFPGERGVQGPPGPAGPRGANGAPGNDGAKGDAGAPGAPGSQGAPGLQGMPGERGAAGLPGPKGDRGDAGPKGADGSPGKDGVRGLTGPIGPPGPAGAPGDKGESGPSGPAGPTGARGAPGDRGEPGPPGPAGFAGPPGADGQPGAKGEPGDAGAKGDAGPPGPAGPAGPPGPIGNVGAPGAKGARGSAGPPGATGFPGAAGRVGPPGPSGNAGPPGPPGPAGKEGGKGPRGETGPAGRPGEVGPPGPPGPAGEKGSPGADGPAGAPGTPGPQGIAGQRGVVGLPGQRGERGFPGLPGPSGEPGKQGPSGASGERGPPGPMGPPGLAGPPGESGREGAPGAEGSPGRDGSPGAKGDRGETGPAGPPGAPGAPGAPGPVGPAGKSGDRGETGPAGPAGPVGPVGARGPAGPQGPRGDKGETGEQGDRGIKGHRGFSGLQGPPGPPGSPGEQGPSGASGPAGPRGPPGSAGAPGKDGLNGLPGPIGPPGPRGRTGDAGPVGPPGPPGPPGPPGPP
# T3 sequence (P08123 91-1104 limits assumed, chain 2 of 2): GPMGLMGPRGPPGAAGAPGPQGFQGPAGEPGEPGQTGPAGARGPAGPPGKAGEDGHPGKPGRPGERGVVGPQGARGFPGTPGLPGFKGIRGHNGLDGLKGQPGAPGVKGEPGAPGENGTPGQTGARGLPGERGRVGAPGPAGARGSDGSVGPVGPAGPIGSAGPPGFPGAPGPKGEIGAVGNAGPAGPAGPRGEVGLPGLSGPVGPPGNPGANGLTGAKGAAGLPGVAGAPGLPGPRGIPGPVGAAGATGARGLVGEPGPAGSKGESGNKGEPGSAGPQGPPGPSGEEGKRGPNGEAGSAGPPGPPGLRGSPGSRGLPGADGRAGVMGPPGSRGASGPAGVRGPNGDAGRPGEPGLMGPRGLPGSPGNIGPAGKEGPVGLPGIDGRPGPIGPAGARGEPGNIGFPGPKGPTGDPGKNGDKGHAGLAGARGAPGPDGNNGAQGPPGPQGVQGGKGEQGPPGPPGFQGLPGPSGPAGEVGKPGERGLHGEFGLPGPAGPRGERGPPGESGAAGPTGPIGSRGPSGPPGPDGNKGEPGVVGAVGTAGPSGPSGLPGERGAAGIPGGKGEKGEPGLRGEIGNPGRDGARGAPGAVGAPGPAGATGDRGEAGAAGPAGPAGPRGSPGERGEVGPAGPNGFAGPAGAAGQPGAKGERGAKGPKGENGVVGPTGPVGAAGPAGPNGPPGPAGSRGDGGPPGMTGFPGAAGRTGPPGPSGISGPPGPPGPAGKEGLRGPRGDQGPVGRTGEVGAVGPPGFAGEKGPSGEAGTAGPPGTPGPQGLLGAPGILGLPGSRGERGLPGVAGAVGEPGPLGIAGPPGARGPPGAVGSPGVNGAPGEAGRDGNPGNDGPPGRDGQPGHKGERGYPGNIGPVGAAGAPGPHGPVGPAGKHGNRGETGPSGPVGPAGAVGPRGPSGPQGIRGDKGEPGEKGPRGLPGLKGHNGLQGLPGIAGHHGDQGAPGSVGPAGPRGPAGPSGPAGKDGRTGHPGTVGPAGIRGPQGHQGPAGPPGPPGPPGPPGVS
# T2 sequence (P02452 179-1192, chain 1 of 2): as the sequence (P02452 179-1192 limits assumed, chain 1 of 2) above
# T2 sequence (P08123 91-1104, chain 2 of 2): as the sequence (P08123 91-1104 limits assumed, chain 2 of 2) above
binder,measurement,setting,value
B1,kon,[1],674000 M⁻¹ s⁻¹
same,IC50,[2],50 nM
same,ΔS°,[3],95 J/(K * mol)
same,kon,[4],3.63e+06 M⁻¹ s⁻¹
B2,binding result,[5],no binding
B3,Kd,[6],60.9 nM
same,Kd,[7],~60 nM
